In the data set the target is Influenza A polymerase heterotrimer (PA-PB1-PB2) (Influenza A virus A/little …, UniProt H6QM92;H6QM91;H6QM90 1-713;1-756;1-760). The data set is described as follows: crystal structure.

As to AAUCUAUAAUAG (ssRNA, 5' m7Gppp cap) [capped 12-mer RNA primer], the binding result was “binds”.

B1: vRNA promoter (5' nt 1-16 / 3' nt 1-18) (structured_RNA)
RNA 1: AGUAGUAACAAGAGGG
RNA 2: UAUACCUCUGCUUCUGCU
modifications: 5' phosphate on strand 1
As for B1, the binding result was “binds”.

For the origin of these results see publication PMC5778463.
